Experimental data published in patent US20230272056A1 (Merck Sharp & Dohme, published 2023).
Changes are numbered by the printed parent chain. Numbers in names are those of the source.

B1: 16BLM (antibody, human IgG1, kappa, L234A L235A, V domains shown)
VH: EVQLVQSGAEVKKPGASVKVSCKASGYTFTSYDMHWVRQAPGQGLEWMGRIDPQSGGIKYAQKFQGRATLTVDTSTSTAYMELSRLRSDDTAVYYCARWDYGGYFDVWGQGTLVTVSS
VL: DIQMTQSPSSLSASVGDRVTITCRASQDIYNYLNWYQQKPGKAVKLLIYYTSVLETGVPSRFSGSGSGTDYTLTISSLQPEDFATYFCQQGDTLPWTFGQGTKLEIKR
notes: IgG1 L234A L235A D265S/kappa; also called 79BLH; 52BMD
B2: 15BLM (antibody, human IgG1, kappa, L234A L235A, V domains shown)
VH: B1 VH
VL: B1 VL with V53R
notes: IgG1 L234A L235A D265S/kappa; also called 78BLH; 51BMD
B3: 11BLM (antibody, human IgG1, kappa, L234A L235A, V domains shown)
VH: B1 VH with K59R
VL: B1 VL
notes: IgG1 L234A L235A D265S/kappa; also called 74BLH; 47BMD
B4: 66BLH (Fab, V domains shown)
VH: B1 VH with W99Y, Y101H
VL: DIQMTQSPSSLSASVGDRVTITCRASQDIYNYLNWYQQKPGKAVKLLIYYTSRLETGVPSRFSGSGSGTDYTLTISSLQPEDFATYFCQQGDTLPWTFGQGTKLEIK
notes: also called 18BLM Fab
B5: 18BLM (antibody, human IgG1, kappa, L234A L235A, V domains shown)
VH: B1 VH with W99Y, Y101H
VL: B1 VL with V53R
notes: IgG1 L234A L235A D265S/kappa; also called 81BLH; 54BMD
B6: 65BLH (Fab, V domains shown)
VH: B1 VH
VL: B4 VL with T93E
notes: also called 17BLM Fab
B7: 07BLM (antibody, human IgG1, kappa, L234A L235A, V domains shown)
VH: B1 VH with K59R
VL: B1 VL with N31S, V53N
notes: IgG1 L234A L235A D265S/kappa; also called 70BLH; 43BMD
B8: 19BLM (antibody, human IgG1, kappa, L234A L235A, V domains shown)
VH: B1 VH with W99Y, Y101H
VL: B1 VL with V53Y
notes: IgG1 L234A L235A D265S/kappa; also called 82BLH; 55BMD
B9: 12BLM (antibody, human IgG1, kappa, L234A L235A, V domains shown)
VH: B1 VH with I58V
VL: B1 VL with T93E
notes: IgG1 L234A L235A D265S/kappa; also called 75BLH; 48BMD

Key:
[1] = target: human LAP-TGFβ1 expressed on P3U1 cells (human, UniProt P01137 30-390); assay: cell-based or functional assay
[2] = target: T1, human LAP-TGFβ1 (construct not stated) (human, UniProt P01137 30-390); assay: KinExA, mAb as constant binding partner
T1 construct: also called human LAP-TGFβ isoform 1; titrant
Description: An orthogonal kinetic exclusion assay (KinExA) method was used in this study to measure the affinities of affinity-matured anti-LAP-TGFβ1 antibodies (referred to as the constant binding partner, CBP) and human LAP-TGFβ1 (referred to as the titrant). To determine the free CBP concentration in solution, biotinylated human LAP-TGFβ1 coated PMMA (Sapidyne, catalog 440176) beads were prepared by first coating with biotin-BSA (ThermoScientific, catalog 29130) followed by streptavidin (Invitrogen, catalog S888), and a final coat with biotinylated human LAP-TGFβ1-Fc.
For association rate analysis, an experimentally optimized constant concentration of CBP and titrant, were mixed 1:1 and free CBP was measured at timed intervals ranging from 15 to 10000 seconds. […] The data were analyzed with KinExA Pro software (version 4.4.26) where the free CBP binding signals were converted into percent free response, plotted against time (seconds) and processed with the n-curve software “Kinetics, Direct” analysis method.
For equilibrium affinity analysis, two experimentally optimized CBP concentrations were combined with 1:2 serially diluted titrant, human LAP-TGFβ1, and incubated at room temperature to achieve equilibrium. […] The data was analyzed with KinExA Pro software (version 4.4.26) where the free CBP binding signals were converted into percent free response and plotted against the titrant concentration series. The equilibrium KD was determined by processing with n-curve software “Equilibrium” analysis method.

[3] = target: T2, human LAP-TGFB1 Fc fusion (human); assay: SPR pH 7.4, antigen captured on Fab 54BLH
T2 construct: also called human LAP-TGFβ1-Fc; human LAP-TGFβ-Fc isoform 1
Text: (§1) A Series S C1 sensor chip (Cytiva, catalog BR100535) was immobilized with low densities of high affinity Fab 54BLH on a Biacore T200 instrument with 1×HBS-EP+(Teknova, catalog H8022). This surface served as a monovalent capture surface for a low-density layer of heterodimer human LAP-TGFβ1 complex leaving the second binding site exposed for monovalent kinetic binding analysis with both mAbs and Fabs. Immobilized flow cell 1 served as the reference and flow cells 2, 3 and 4 were used to evaluate the binding interaction between human LAP-TGFβ1 and yeast display mutant mAbs and Fabs.
(§2) Approximately 15-25 RU of human LAP-TGFβ1-Fc was captured to the Fab capture surface followed by injection of 1:3 serially diluted Fabs and mAbs from 6 nM to 0.07 nM (Fabs: 54BLH, 55BLH, 60BLH, 63BLH, 64BLH-mAbs: 69BLH, 70BLH) and 1:3 serially diluted Fab and mAbs from 60 nM to 0.74 nM (Fabs: 59BLH, 66BLH, 67BLH—mAbs: 74BLH, 75BLH, 78BLH, 79BLH, 81BLH, 82BLH) including 0 nM. The binding data was double referenced by subtraction of signal from a reference flow cell and the 0 nM injections for evaluation of Fabs and mAbs respectively. Binding rate constants were calculated/determined by fitting the data with a 1:1 binding model (Cytiva Biacore T200 Evaluation software 3.0).

[4] = target: T2, human LAP-TGFB1 Fc fusion; assay: SPR pH 6.0, antigen captured on Fab 54BLH
Text: as §1, §2

[5] = target: T3, human LAP-TGFB2 Fc fusion (human); assay: SPR pH 7.4
T3 construct: also called human LAP-TGFβ2; LAP-TGFβ isoform 2

[6] = target: T4, human LAP-TGFB3 Fc fusion (human); assay: SPR pH 7.4
T4 construct: also called human LAP-TGFβ3; LAP-TGFβ isoform 3

[7] = target: T2, human LAP-TGFB1 Fc fusion; assay: SPR pH 7.4, antigen-Fc captured, Fab analyte
[8] = target: T2, human LAP-TGFB1 Fc fusion; assay: SPR pH 6.0, antigen-Fc captured, Fab analyte
Description: A Series S CM4 sensor chip (Cytiva, catalog BR100534) was immobilized with an anti-human Fc capture antibody following the kit protocol (Cytiva, catalog BR100839) on a Biacore T200 instrument with 1× HBS-EP+ (Teknova, catalog H8022). […] The binding data were double referenced by subtraction of signal from a reference (capture surface only) flow cell and the 0 nM Fab injection. Binding rate constants were determined by fitting the data with a 1:1 binding model (Cytiva Biacore T200 Evaluation software 3.0).

[9] = target: T2, human LAP-TGFB1 Fc fusion; assay: SPR
[10] = target: T2, human LAP-TGFB1 Fc fusion; assay: SPR pH 7.4, antigen-Fc captured, Fab analyte; remark: listed apart in the source

Chain of human LAP-TGFβ1 expressed on P3U1 cells (P01137 30-390): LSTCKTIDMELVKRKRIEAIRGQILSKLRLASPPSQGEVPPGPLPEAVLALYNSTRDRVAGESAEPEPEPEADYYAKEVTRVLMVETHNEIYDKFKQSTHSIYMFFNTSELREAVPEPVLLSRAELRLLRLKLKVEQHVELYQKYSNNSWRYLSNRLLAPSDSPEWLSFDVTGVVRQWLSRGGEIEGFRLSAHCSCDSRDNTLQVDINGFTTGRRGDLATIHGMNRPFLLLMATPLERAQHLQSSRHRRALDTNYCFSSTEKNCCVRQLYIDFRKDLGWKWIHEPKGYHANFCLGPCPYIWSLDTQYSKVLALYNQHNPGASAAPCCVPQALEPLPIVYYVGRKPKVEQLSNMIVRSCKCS
T1 sequence (P01137 30-390 limits assumed): as the sequence (P01137 30-390) above
T2 sequence (chain, as listed by the source limits assumed): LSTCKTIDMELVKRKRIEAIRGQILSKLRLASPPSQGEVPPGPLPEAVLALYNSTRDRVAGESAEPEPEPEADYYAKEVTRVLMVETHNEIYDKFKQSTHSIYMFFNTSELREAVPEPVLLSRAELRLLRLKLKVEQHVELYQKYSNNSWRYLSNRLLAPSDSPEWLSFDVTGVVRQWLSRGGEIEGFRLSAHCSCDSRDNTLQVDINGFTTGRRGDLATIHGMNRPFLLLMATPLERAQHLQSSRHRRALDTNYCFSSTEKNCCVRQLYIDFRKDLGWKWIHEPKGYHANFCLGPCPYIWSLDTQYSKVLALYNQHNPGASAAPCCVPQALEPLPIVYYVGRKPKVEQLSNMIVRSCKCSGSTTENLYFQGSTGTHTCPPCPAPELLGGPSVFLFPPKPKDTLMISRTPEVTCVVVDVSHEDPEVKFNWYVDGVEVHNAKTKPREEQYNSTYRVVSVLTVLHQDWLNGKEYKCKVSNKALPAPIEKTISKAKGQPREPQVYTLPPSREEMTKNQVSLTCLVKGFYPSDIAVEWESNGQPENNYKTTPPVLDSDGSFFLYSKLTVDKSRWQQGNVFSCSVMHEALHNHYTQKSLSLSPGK
T3 sequence (chain, as listed by the source limits assumed): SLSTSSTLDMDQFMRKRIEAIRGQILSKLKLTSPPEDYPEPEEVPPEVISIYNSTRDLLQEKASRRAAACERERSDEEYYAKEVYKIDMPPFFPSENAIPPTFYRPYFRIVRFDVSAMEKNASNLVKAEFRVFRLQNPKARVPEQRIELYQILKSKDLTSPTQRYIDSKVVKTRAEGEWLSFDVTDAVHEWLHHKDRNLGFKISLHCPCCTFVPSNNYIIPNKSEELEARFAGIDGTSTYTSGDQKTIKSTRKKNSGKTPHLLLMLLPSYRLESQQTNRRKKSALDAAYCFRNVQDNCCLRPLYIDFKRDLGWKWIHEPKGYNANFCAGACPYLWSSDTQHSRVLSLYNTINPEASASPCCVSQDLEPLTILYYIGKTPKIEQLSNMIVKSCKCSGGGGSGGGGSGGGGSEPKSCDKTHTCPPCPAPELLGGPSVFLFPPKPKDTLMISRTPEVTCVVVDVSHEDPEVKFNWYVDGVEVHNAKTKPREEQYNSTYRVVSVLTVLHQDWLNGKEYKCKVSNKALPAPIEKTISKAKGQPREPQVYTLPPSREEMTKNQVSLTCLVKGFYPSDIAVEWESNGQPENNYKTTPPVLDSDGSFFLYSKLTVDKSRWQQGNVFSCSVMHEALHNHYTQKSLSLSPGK
T4 sequence (chain, as listed by the source limits assumed): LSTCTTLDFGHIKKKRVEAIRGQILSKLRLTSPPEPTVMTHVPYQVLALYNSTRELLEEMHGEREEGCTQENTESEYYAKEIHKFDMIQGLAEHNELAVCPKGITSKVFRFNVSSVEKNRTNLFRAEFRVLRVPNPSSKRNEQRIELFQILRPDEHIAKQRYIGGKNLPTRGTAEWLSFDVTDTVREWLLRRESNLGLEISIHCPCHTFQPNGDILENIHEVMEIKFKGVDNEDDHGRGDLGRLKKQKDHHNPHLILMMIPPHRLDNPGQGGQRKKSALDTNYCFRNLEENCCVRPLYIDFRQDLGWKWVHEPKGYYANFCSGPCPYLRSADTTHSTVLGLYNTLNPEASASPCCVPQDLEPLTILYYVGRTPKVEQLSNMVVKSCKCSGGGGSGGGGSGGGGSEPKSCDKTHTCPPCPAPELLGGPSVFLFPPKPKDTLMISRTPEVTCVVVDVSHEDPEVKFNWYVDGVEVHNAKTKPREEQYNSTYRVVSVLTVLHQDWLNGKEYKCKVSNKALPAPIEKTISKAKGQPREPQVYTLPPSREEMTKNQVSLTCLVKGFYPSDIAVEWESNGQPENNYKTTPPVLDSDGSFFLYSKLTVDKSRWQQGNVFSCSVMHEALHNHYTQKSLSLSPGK

| Binder | Average EC50 [1] [µg/mL] | ELISA assay 2 EC50 [1] [µg/mL] | ELISA assay #1 EC50 [1] [µg/mL] | Kd [2] [pM] | koff [2] [s⁻¹] | kon [2] [M⁻¹ s⁻¹] | Fab/mAb KD Ratio [3] | Kd [3] [pM] | koff [3] [s⁻¹] | kon [3] [M⁻¹ s⁻¹] | Fab/mAb KD Ratio [4] | Kd [4] [pM] | koff [4] [s⁻¹] | kon [4] [M⁻¹ s⁻¹] | further results |
| --- | --- | --- | --- | --- | --- | --- | --- | --- | --- | --- | --- | --- | --- | --- | --- |
| B1 | 0.104 | 0.126 | 0.0816 | 2.75 | 1.38e-05 | 5.03e+06 | 1.6 | 38 | 0.000552 | 1.44e+07 | 1.6 | 110 | 0.00122 | 1.12e+07 |  |
| B2 | 0.231 | 0.243 | 0.219 | 2.35 | 2.56e-05 | 1.09e+07 | 4 | 87.6 | 0.00196 | 2.22e+07 | 3.2 | 331 | 0.00399 | 1.21e+07 |  |
| B3 | 0.083 | 0.112 | 0.0539 | 1.33 | 8.14e-06 | 1.63e+07 | 1.7 | 26 | 0.000374 | 1.47e+07 | 1.3 | 133 | 0.000892 | 6.75e+06 |  |
| B4 |  |  |  |  |  |  |  | 3130 | 0.0181 | 5.76e+06 |  | 16800 | 0.0329 | 1.96e+06 | binding result [5]: no binding (tested: 1000 nM Fab); binding result [6]: no binding (tested: 1000 nM Fab); Fold improvement in KD [7]: 16 fold; Kd [7]: 3730 pM; koff [7]: 0.00764 s⁻¹; kon [7]: 2.05e+06 M⁻¹ s⁻¹; koff [8]: 0.0221 s⁻¹; kon [8]: 2.09e+06 M⁻¹ s⁻¹ |
| B5 | 0.052 | 0.006 | 0.0982 | 62.1 | 6.09e-06 | 98300 | 3.3 | 959 | 0.00518 | 5.4e+06 | 1.8 | 9110 | 0.0489 | 5.65e+06 |  |
| B6 |  |  |  |  |  |  |  |  |  |  |  |  |  |  | Fold change in KD from pH 7.4 to pH 6 [9]: 0.4 fold; binding result [5]: no binding (tested: 1000 nM Fab); binding result [6]: no binding (tested: 1000 nM Fab); Fold improvement in KD [7]: 401 fold; Kd [7]: 146 pM; koff [7]: 0.00107 s⁻¹; kon [7]: 7.33e+06 M⁻¹ s⁻¹; Kd [10]: 146 pM; koff [10]: 0.00107 s⁻¹; kon [10]: 7.33e+06 M⁻¹ s⁻¹ |
| B7 | 0.076 | 0.119 | 0.0332 | 2.24 | 2.82e-05 | 1.28e+07 | 0.3 | 47 | 0.000671 | 1.45e+07 | 2.2 | 155 | 0.00131 | 8.47e+06 |  |
| B8 | 0.179 | 0.205 | 0.152 | 68 | 1.98e-06 | 29200 | 13.3 | 178 | 0.014 | 7.82e+07 | 5.5 | 3430 | 0.0365 | 1.07e+07 |  |
| B9 | 0.063 | 0.096 | 0.0295 | 0.367 | 7.71e-06 | 2.04e+07 | 3.2 | 11.1 | 0.000212 | 1.91e+07 | 2.2 | 136 | 0.000936 | 6.86e+06 |  |
